Data on three molecules can be found in article PMC3141245.

One data set has as its target DB-JBP1 D536A (Leishmania tarentolae, UniProt Q9U6M1 382-561, D536A). Nature of the data set: SPR. Background: Surface plasmon resonance follows binding to a sensor surface in real time, without labels.
For another data set, the target named is DB-JBP1 D525A (Leishmania tarentolae, UniProt Q9U6M1 382-561, D525A). The data set is described as follows: SPR.
The target in a further data set is DB-JBP1 K436A (Leishmania tarentolae, UniProt Q9U6M1 382-561, K436A). The data set is described as follows: fluorescence anisotropy. A general note: Fluorescence polarisation rises when a labelled molecule tumbles more slowly, as on binding a larger partner.
The next data set concerns the target DB-JBP1 K535A (Leishmania tarentolae, UniProt Q9U6M1 382-561, K535A). Nature of the data set: fluorescence anisotropy.
In another data set the target is JBP1 D525A (UniProt Q9U6M1 1-827, D525A). Nature of the data set: fluorescence anisotropy.

B1: VSG J-DNA 14-mer, biotin (dsDNA)
DNA 1: GGCAGCTGCAACAA
DNA 2: TTGTTGCAGCTGCC
modifications: base J replaces T7 of strand 1
For B1, the binding result is “binds” with DB-JBP1 D536A and “no binding” with DB-JBP1 D525A.

B2: VSG J-DNA 14-mer (dsDNA)
DNA 1: GGCAGCTGCAACAA
DNA 2: TTGTTGCAGCTGCC
modifications: base J (beta-D-glucosyl-hydroxymethyluracil) replaces T7 of strand 1
B2: the binding result with DB-JBP1 K436A and in the data set with DB-JBP1 K535A was “binds” each time.

B3: VSG T-DNA 14-mer (dsDNA)
DNA 1: GGCAGCTGCAACAA
DNA 2: TTGTTGCAGCTGCC
As for B3, the Kd – broadly, the equilibrium constant for the complex coming apart – in the data set with JBP1 D525A came to 11.7 µM. This counts as double-digit micromolar.
